Measured values published in paper PMC7016005 (2020).

B1: mouse Twist1, wildtype [mouse] / mouse E2A [mouse] (parent complex)
chain 1: MMQDVSSSPVSPADDSLSNSEEEPDRQQPASGKRGARKRRSSRRSAGGSAGPGGATGGGIGGGDEPGSPAQGKRGKKSAGGGGGGGAGGGGGGGGGSSSGGGSPQSYEELQTQRVMANVRERQRTQSLNEAFAALRKIIPTLPSDKLSKIQTLKLAARYIDFLYQVLQSDELDSKMASCSYVAHERLSYAFSVWRMEGAWSMSASH
chain 2: MMNQSQRMAPVGSDKELSDLLDFSMMFPLPVANGKSRPASLGGTQFAGSGLEDRPSSGSWGSSDQNSSSFDPSRTYSEGAHFSDSHSSLPPSTFLGAGLGGKGSERNAYATFGRDTSVGTLSQAGFLPGELSLSSPGPLSPSGIKSSSQYYPSFPSNPRRRAADGGLDTQPKKVRKVPPGLPSSVYPPSSGDSYSRDAAAYPSAKTPSSAYPSPFYVADGSLHPSAELWSTPSQVGFGPMLGDGSSPLPLAPGSSSVGSGTFGGLQQQDRMGYQLHGSEVNGSLPAVSSFSAAPGTYSGTSGHTPPVSGAAAESLLGTRGTTASSSGDALGKALASIYSPDHSSNNFSPSPSTPVGSPQGLPGTSQWPRAGAPSALSPNYDAGLHGLSKMEDRLDEAIHVLRSHAVGTASDLHGLLPGHGALTTSFTGPMSLGGRHAGLVGGSHPEEGLTSGASLLHNHASLPSQPSSLPDLSQRPPDSYSGLGRAGTTAGASEIKREEKEDEEIASVADAEEDKKDLKVPRTRTSPDEDEDDLLPPEQKAEREKERRVANNARERLRVRDINEAFKELGRMCQLHLSSEKPQTKLLILHQAVAVILSLEQQVRERNLNPKAACLKRREEEKVSGVVGDPQLALSAAHPGLGEAHNPAGHL

Variants of: B1
Assay: co-immunoprecipitation (Flag-IP), blot quantified by ImageJ; Flag-E2A bait, Twist1-Myc prey; n = 3; parent: 1; read off a plot

Variant | response
chain 1 A190T | ~0.52 relative expression (/GAPDH)
chain 1 F191S | ~1.6 relative expression (/GAPDH)
chain 1 S192P | ~0.05 relative expression (/GAPDH)
